Measured values published in paper PMC1831719, “Elucidating the Ticking of an In Vitro Circadian Clockwork” (PLoS Biology, 2007).

Target: the molecule itself
Test: negative-stain electron microscopy with image classification; aliquots every 3 h from the oscillating KaiA/KaiB/KaiC mixture (50 ng/ul KaiA, 50 ng/ul KaiB, 200 ng/ul KaiC, 1 mM ATP, 30 °C); 0.75% uranyl formate; particles sorted into four meta classes at seven phases

B1: KaiC (natural protein, S. elongatus, UniProt Q79PF4 1-519, looked up)
chain: MTSAEMTSPNNNSEHQAIAKMRTMIEGFDDISHGGLPIGRSTLVSGTSGTGKTLFSIQFLYNGIIEFDEPGVFVTFEETPQDIIKNARSFGWDLAKLVDEGKLFILDASPDPEGQEVVGGFDLSALIERINYAIQKYRARRVSIDSVTSVFQQYDASSVVRRELFRLVARLKQIGATTVMTTERIEEYGPIARYGVEEFVSDNVVILRNVLEGERRRRTLEILKLRGTSHMKGEYPFTITDHGINIFPLGAMRLTQRSSNVRVSSGVVRLDEMCGGGFFKDSIILATGATGTGKTLLVSRFVENACANKERAILFAYEESRAQLLRNAYSWGMDFEEMERQNLLKIVCAYPESAGLEDHLQIIKSEINDFKPARIAIDSLSALARGVSNNAFRQFVIGVTGYAKQEEITGLFTNTSDQFMGAHSITDSHISTITDTIILLQYVEIRGEMSRAINVFKMRGSWHDKAIREFMISDKGPDIKDSFRNFERIISGSPTRITVDEKSELSRIVRGVQEKGPES
notes: KaiC, circadian clock protein of Synechococcus elongatus; In the cycling reaction KaiC oscillates between hypo- and hyperphosphorylated forms (sites T426, S431, T432); also called KaiC hexamer; P-KaiC; source: E. coli, purified
- stoichiometry N: 6
